Measured values as given in patent US20230322857A1, “RECOMBINANTLY ENGINEERED POLYPEPTIDES CAPABLE OF RECYCLING NONCANONICAL COFACTORS” (The Regents of the University of California, priority 2022, published 2023).
“Also recorded” adds a separate entry of the source.

Assays:
Assay type in all cases: biochemical
[1] = Comparison of PTDH and GDH Triple redox cofactor cycling systems
Procedure: Comparison of PTDH and GDH Triple Redox Cofactor Cycling Systems. In cycling reactions focused on higher conversion and productivity, see FIG. 10C, the concentration of cofactor cycling protein (TS-PTDH or GDH Triple) was increased relative to the TTN determination experiments. Reactions were performed at 30° C. without shaking in 1 mL volumes in 2 mL glass vials secured with a PTFE-lined screw cap. Sampling and GC-FID analysis were performed as described in the TTN method section.
Reactions utilizing TS-PTDH LY-13 contained 100 mM MOPS at pH 7.5, 100 mM sodium phosphite, 33 mM KIP, and 18.8 μM XenA. Reactions utilizing GDH Triple contained 200 mM potassium phosphate at pH 7.5, 300 mM D-glucose, 1 M NaCl, 33 mM KIP, and 18.8 μM XenA. The NMN^+ concentration in each reaction was varied at 0, 0.05, 0.1, 0.5, or 5 mM. The reactions were initiated by spiking TS-PTDH LY-13 or GDH Triple to a final concentration of 10 μM.

[2] = BNA(H)-mediated PTDH biotransformation with TsOYE
Procedure: BNA(H)-Mediated PTDH Biotransformation. Reactions with BNA^+, see FIG. 10D, contained 100 mM MOPS-NaOH at pH 7.6, 10 mM KIP, 100 mM sodium phosphite, and 2% v/v DMSO. BNA^+Cl^−, prepared by refluxing equimolar amounts of nicotinamide and benzyl chloride in acetonitrile overnight, followed by precipitation with diethyl ether on ice was supplied to the reactions at final concentrations of 0, 5, 10, or 20 mM. Reactions were initiated by spiking TsOYE and the appropriate TS-PTDH variant to a final concentration of 10 μM, each. Reaction mixtures were incubated at 30° C. on a Thermomixer C (Eppendorf) with shaking at 900 rpm for 24 h, extracted with 500 μL ethyl acetate containing 5 mM n-dodecane, and analyzed by GC-FID. The cycling system with no BNA was used to determine the background activity of the cycling systems. This value was subtracted from the final levodione concentrations in the 5-, 10-, and 20-mM samples to determine the BNA(H)^− specific levodione production. Concentrations of levodione product were determined using a calibration line (0-10 mM, 6 levels, using n-dodecane as internal standard). The y-intercept of the calibration line was forced through 0.
For BNA(H)-mediated reactions, gas chromatography analyses were performed on a GC-2010 (Shimadzu, Japan) equipped with an AOC-20i auto injector and a flame ionization detector (FID), using a CP-Sil 5 column (25 m×0.25 mm×[…]). 1 μL of sample was injected with a split ratio of 100:1 and injector at 340° C. The FID was maintained at 360° C. Nitrogen was used as the carrier gas, with a linear velocity of 30 cm/s. The oven was held at 135° C. for 1 min, ramped at 15° C./min to 215° C., then 30° C./min to 345° C., and held at 345° C. for 1 min.
Expression and Purification of Proteins for BNA(H)-Mediated Biotransformation Reactions. E. coli BL21(DE3) strains were transformed with the plasmids containing the TS-PTDH variants and grown on LB-agar plates containing ampicillin at 37° C. overnight. An overnight culture, 15 mL LB supplemented with ampicillin, was inoculated with a single colony, and grown at 37° C., 170 rpm overnight. 2 L baffled shake-flasks with 250 mL of 2×YT media containing 200 μg/mL ampicillin, were inoculated with the overnight culture, grown at 37° C., 170 rpm until OD600 of ˜1.0, induced with IPTG (0.5 mM), and grown at 30° C. and 170 rpm for 24 h. Cells were harvested by centrifugation at 18,000×g, 4° C., 10 min and stored at −20° C. until purification.
The pellet was resuspended in four volumes loading buffer (50 mM sodium phosphate, 300 mM sodium chloride, 10 mM imidazole, pH 7.7), and lysed on ice by sonication (Branson sonifier 250; 15 min total, 40% duty cycle, output control 3.5, 2 mm tip). The lysate was clarified (21,000×g, 4° C., 30 min followed by 0.2 μm filtration), and loaded (1 mL/min) onto a Nickel-HisTrap FF crude (1 mL) column, washed with loading buffer (12 column volumes, CV), followed by a step with 10% elution buffer (loading buffer containing 250 mM imidazole; 12 CV). The protein was then eluted with 100% elution buffer and collected in fractions of 0.5 mL. Fractions containing protein were combined and dialyzed against ice-cold dialysis buffer (50 mM sodium phosphate, pH 7.7, 800 mL); the buffer was renewed after the first 2 h of dialysis. Following the dialysis, the protein was mixed with glycerol (20% v/v final concentration). Enzyme concentrations were estimated by the absorbance at 280 nm (non-denatured protein), using predicted extinction coefficients (wild type and LY-13: 26470, LY-7: […]; web.expasy.org/protparam/). The protein was aliquoted, flash frozen in liquid nitrogen, and stored at −80° C. until use. […]

[3] = Steady-state kinetics of TS-PTDH variants with NAD^+; settings: 100 mM MOPS, pH 7.25, 10 mM sodium phosphite, varied cofactor concentrations; n = 3

B1: LY-13: phosphite dehydrogenase variant with A155N, E175A, A176F (SEQ ID NO: 6) (protein)
chain: MLPKLVITHRVHEEILQLLAPHCELITNQTDSTLTREEILRRCRDAQAMMAFMPDRVDADFLQACPELRVIGCALKGFDNFDVDACTARGVWLTFVPDLLTVPTAELAIGLAVGLGRHLRAADAFVRSGKFRGWQPRFYGTGLDNATVGFLGMGNIGLAMADRLQGWGATLQYHAFKALDTQTEQRLGLRQVACSELFASSDFILLALPLNADTLHLVNAELLALVRPGALLVNPCRGSVVDEAAVLAALERGQLGGYAADVFEMEDWARADRPQQIDPALLAHPNTLFTPHIGSAVRAVRLEIERCAAQNILQALAGERPINAVNRLPKANPAAD
Question: Which results are given for B1?
Answer: time to complete conversion of the 33 mM KIP pool ([1]; 5 mM NMN^+ supplied, 10 μM cycling enzyme, 18.8 μM XenA): 12 h; biotransformation performance compared to GDH Triple at low NMN^+ ([1]; NMN^+ supplementation 1 mM and lower): higher biotransformation rates and final titers; also recorded: more efficient utilization of the NMN^+ pool; also recorded: outperform GDH Triple; activity / cycling with BNA^+ compared to wild type [2]: enhanced activity for BNA^+ reduction; response of biotransformation efficiency to BNA^+ concentration ([2]; 0, 5, 10, or 20 mM BNA^+): cofactor dose-dependent response; utilization of the BNA^+ pool relative to the wild type protein ([2]; 20 mM BNA^+ supplementation, TsOYE, 24 h): improved utilization of the BNA^+ pool; Km [3]: 180 ± 30 µM; NAD^+ kcat [3]: 2.06 ± 0.11 s⁻¹
